± gives the standard deviation of the averaged measurements.
Test: total protein half-life in vivo (active degradation + dilution); higher = more stable protein
[1] = wild type E. coli NCM3722, growth: C-lim chemostat, doubling time 3 h
[2] = wild type E. coli NCM3722, growth: C-lim chemostat, doubling time 6 h
[3] = wild type E. coli NCM3722, growth: C-lim chemostat, doubling time 12 h
[4] = E. coli NCM3722 delta-clpP delta-lon delta-hslV, growth: N-lim chemostat, doubling time 6 h
[5] = E. coli NCM3722 delta-clpP, growth: N-lim chemostat, doubling time 6 h
[6] = E. coli NCM3722 delta-hslV, growth: N-lim chemostat, doubling time 6 h
[7] = E. coli NCM3722 delta-lon, growth: N-lim chemostat, doubling time 6 h
[8] = E. coli NCM3722 delta-smpB, growth: N-lim chemostat, doubling time 6 h
[9] = wild type E. coli NCM3722, growth: N-lim chemostat, doubling time 6 h
[10] = wild type E. coli NCM3722, growth: N-lim chemostat, doubling time 12 h
[11] = wild type E. coli NCM3722, growth: P-lim chemostat, doubling time 6 h
[12] = wild type E. coli NCM3722, growth: P-lim chemostat, doubling time 12 h

| Sequence | total protein half-life in vivo [1] [h] | total protein half-life in vivo [2] [h] | total protein half-life in vivo [3] [h] | total protein half-life in vivo [4] [h] | total protein half-life in vivo [5] [h] | total protein half-life in vivo [6] [h] | total protein half-life in vivo [7] [h] | total protein half-life in vivo [8] [h] | total protein half-life in vivo [9] [h] | total protein half-life in vivo [10] [h] | total protein half-life in vivo [11] [h] | total protein half-life in vivo [12] [h] |
| --- | --- | --- | --- | --- | --- | --- | --- | --- | --- | --- | --- | --- |
| MRGKKRIGLLFLLIAVVVGGGGLLLAQKVLHKTSDTAFCLSCHSMSKPFEEYQGTVHFSNQKGIRAECADCHIPKSGMDYLFAKLKASKDIYHEFVSGKIDSDDKFEAHRQEMAETVWKELKATDSATCRSCHSFDAMDIASQSESAQKMHNKAQKDSETCIDCHKGIAHFPPEIKMDDNAAHELESQAATSVTNGAHIYPFKTSHIGELATVNPGTDLTVVDASGKQPIVLLQGYQMQGSENTLYLAAGQRLALATLSEEGIKALTVNGEWQADEYGNQWRQASLQGALTDPALADRKPLWQYAEKLDDTYCAGCHAPIAADHYTVNAWPSIAKGMGARTSMSENELDILTRYFQYNAKDITEKQ | 2.33 | 4.09 | 8.13 ± 1.1 | – | – | – | – | – | – | – | – | – |
| MDAMKYNDLRDFLTLLEQQGELKRITLPVDPHLEITEIADRTLRAGGPALLFENPKGYSMPVLCNLFGTPKRVAMGMGQEDVSALREVGKLLAFLKEPEPPKGFRDLFDKLPQFKQVLNMPTKRLRGAPCQQKIVSGDDVDLNRIPIMTCWPEDAAPLITWGLTVTRGPHKERQNLGIYRQQLIGKNKLIMRWLSHRGGALDYQEWCAAHPGERFPVSVALGADPATILGAVTPVPDTLSEYAFAGLLRGTKTEVVKCISNDLEVPASAEIVLEGYIEQGETAPEGPYGDHTGYYNEVDSFPVFTVTHITQREDAIYHSTYTGRPPDEPAVLGVALNEVFVPILQKQFPEIVDFYLPPEGCSYRLAVVTIKKQYAGHAKRVMMGVWSFLRQFMYTKFVIVCDDDVNARDWNDVIWAITTRMDPARDTVLVENTPIDYLDFASPVSGLGSKMGLDATNKWPGETQREWGRPIKKDPDVVAHIDAIWDELAIFNNGKSA [P0AAB4] | 2.98 ± 0.37 | 6.29 ± 0.21 | 11.3 ± 0.45 | 6.47 ± 0.5 | 6.032 ± 0.049 | 6.88 ± 0.78 | 6.27 ± 0.71 | 6.38 ± 0.54 | 5.82 ± 0.23 | 11.4 ± 0.32 | 5.99 ± 0.093 | 12.5 ± 0.62 |
| MIARWFWREWRSPSLLIVWLALSLAVACVLALGNISDRMEKGLSQQSREFMAGDRALRSSREVPQAWLEEAQKRGLKVGKQLTFATMTFAGDTPQLANVKAVDDIYPMYGDLQTNPPGLKPQAGSVLLAPRLMALLNLKTGDTIDVGDATLRIAGEVIQEPDSGFNPFQMAPRLMMNLADVDKTGAVQPGSRVTWRYKFGGNENQLDGYEKWLLPQLKPEQRWYGLEQDEGALGRSMERSQQFLLLSALLTLLLAVAAVAVAMNHYCRSRYDLVAILKTLGAGRAQLRKLIVGQWLMVLTLSAVTGGAIGLLFENVLMVLLKPVLPAALPPASLWPWLWALGTMTVISLLVGLRPYRLLLATQPLRVLRNDVVANVWPLKFYLPIVSVVVVLLLAGLMGGSMLLWAVLAGAVVLALLCGVLGWMLLNVLRRMTLKSLPLRLAVSRLLRQPWSTLSQLSAFSLSFMLLALLLVLRGDLLDRWQQQLPPESPNYFLINIATEQVAPLKAFLAEHQIVPESFYPVVRARLTAINDKPTEGNEDEALNRELNLTWQNTRPDHNPIVAGNWPPKADEVSMEEGLAKRLNVALGDTVTFMGDTQEFRAKVTSLRKVDWESLRPNFYFIFPEGALDGQPQSWLTSFRWENGNGMLTQLNRQFPTISLLDIGAILKQVGQVLEQVSRALEVMVVLVTACGMLLLLAQVQVGMRQRHQELVVWRTLGAGKKLLRTTLWCEFAMLGFVSGLVAAIGAETALAVLQAKVFDFPWEPDWRLWIVLPCSGALLLSLFGGWLGARLVKGKALFRQFAG | 3.48 ± 0.66 | 6.92 ± 1.4 | – | 6.27 ± 0.098 | – | 6.06 ± 0.42 | 6.45 ± 0.35 | 6.86 ± 0.47 | 6.21 ± 1.2 | 13.3 ± 1.4 | 5.85 ± 0.5 | 10.5 ± 0.91 |
| MLPFLKAPADAPLMTDKYEIDARYRYWRRHILLTIWLGYALFYFTRKSFNAAVPEILANGVLSRSDIGLLATLFYITYGVSKFVSGIVSDRSNARYFMGIGLIATGIINILFGFSTSLWAFAVLWVLNAFFQGWGSPVCARLLTAWYSRTERGGWWALWNTAHNVGGALIPIVMAAAALHYGWRAGMMIAGCMAIVVGIFLCWRLRDRPQALGLPAVGEWRHDALEIAQQQEGAGLTRKEILTKYVLLNPYIWLLSFCYVLVYVVRAAINDWGNLYMSETLGVDLVTANTAVTMFELGGFIGALVAGWGSDKLFNGNRGPMNLIFAAGILLSVGSLWLMPFASYVMQATCFFTIGFFVFGPQMLIGMAAAECSHKEAAGAATGFVGLFAYLGASLAGWPLAKVLDTWHWSGFFVVISIAAGISALLLLPFLNAQTPREA | 2.81 | 6.04 | 10.4 | 7.27 | 6.56 ± 0.2 | 5.26 | 5.43 ± 0.18 | 6.52 ± 0.92 | 5.01 ± 2.2 | > 16 | – | 10.6 ± 1.1 |
| MKRRLIIAASLFVFNLSSGFAAENIPFSPQPPEIHAGSWVLMDYTTGQILTAGNEHQQRNPASLTKLMTGYVVDRAIDSHRITPDDIVTVGRDAWAKDNPVFVGSSLMFLKEGDRVSVRDLSRGLIVDSGNDACVALADYIAGGQRQFVEMMNNYAEKLHLKDTHFETVHGLDAPGQHSSAYDLAVLSRAIIHGEPEFYHMYSEKSLTWNGITQQNRNGLLWDKTMNVDGLKTGHTSGAGFNLIASAVDGQRRLIAVVMGADSAKGREEEARKLLRWGQQNFTTVQILHRGKKVGTERIWYGDKENIDLGTEQEFWMVLPKAEIPHIKAKYTLDGKELTAPISAHQRVGEIELYDRDKQVAHWPLVTLESVGEGSMFSRLSDYFHHKA | – | – | – | – | – | – | – | – | 7.4 | – | – | – |
| MPKLGMQSIRRRQLIDATLEAINEVGMHDATIAQIARRAGVSTGIISHYFRDKNGLLEATMRDITSQLRDAVLNRLHALPQGSAEQRLQAIVGGNFDETQVSSAAMKAWLAFWASSMHQPMLYRLQQVSSRRLLSNLVSEFRRELPREQAQEAGYGLAALIDGLWLRAALSGKPLDKTRANSLTRHFITQHLPTD | – | – | – | 4.85 ± 0.33 | 4.25 | – | 4.46 | – | 4.99 | – | – | – |
| MSHQKIIQDLIAWIDEHIDQPLNIDVVAKKSGYSKWYLQRMFRTVTHQTLGDYIRQRRLLLAAVELRTTERPIFDIAMDLGYVSQQTFSRVFRRQFDRTPSDYRHRL [P0A9E2] | – | – | – | 6.13 ± 1.3 | – | – | – | – | – | – | – | – |
| MSYTLPSLPYAYDALEPHFDKQTMEIHHTKHHQTYVNNANAALESLPEFANLPVEELITKLDQLPADKKTVLRNNAGGHANHSLFWKGLKKGTTLQGDLKAAIERDFGSVDNFKAEFEKAAASRFGSGWAWLVLKGDKLAVVSTANQDSPLMGEAISGASGFPIMGLDVWEHAYYLKFQNRRPDYIKEFWNVVNWDEAAARFAAKK | – | 5.11 ± 0.91 | 11.3 ± 1.7 | 6.4 ± 0.78 | 5.61 ± 0.3 | 5.5 ± 0.16 | 7.05 ± 1.2 | 4.96 ± 1.2 | 4.87 ± 1.1 | 9.5 ± 0.12 | 5.31 ± 0.55 | 11.3 ± 0.15 |
